T1: LRRC15 on U-87 MG (LRRC15+) cells (human, UniProt Q8TF66 22-581)
T1 construct: Endogenous LRRC15 of U-87 MG cells (ATCC HTB-14); also called cell surface LRRC15
T1 sequence: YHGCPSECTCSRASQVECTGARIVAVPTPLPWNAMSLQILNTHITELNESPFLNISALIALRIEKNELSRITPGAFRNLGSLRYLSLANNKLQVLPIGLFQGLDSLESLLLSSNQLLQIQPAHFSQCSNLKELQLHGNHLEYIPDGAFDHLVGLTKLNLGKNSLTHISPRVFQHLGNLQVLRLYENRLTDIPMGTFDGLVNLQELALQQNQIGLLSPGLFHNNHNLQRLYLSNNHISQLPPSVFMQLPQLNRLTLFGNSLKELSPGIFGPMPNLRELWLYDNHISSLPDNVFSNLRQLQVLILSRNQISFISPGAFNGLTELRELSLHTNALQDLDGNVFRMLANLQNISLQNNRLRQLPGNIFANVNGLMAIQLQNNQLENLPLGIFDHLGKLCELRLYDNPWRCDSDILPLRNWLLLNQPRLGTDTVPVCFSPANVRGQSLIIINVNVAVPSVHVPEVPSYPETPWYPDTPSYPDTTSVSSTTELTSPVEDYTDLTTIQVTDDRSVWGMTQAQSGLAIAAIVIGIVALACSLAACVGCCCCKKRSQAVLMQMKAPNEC


Target: T1, LRRC15 on U-87 MG (LRRC15+) cells
Assay: flow cytometry on U-87 MG (LRRC15+) cells, 60 nM to 1 pM
Description: FIGS. 40a-40b: Characterization of binding affinity for anti-LRRC15 mAbs. Anti-LRRC15 mAbs were assayed for their binding to U-87 MG (LRRC15+) cells.
Binding affinity of selected LRRC15 pH engineered antibody variants from Example 9 were measured on U-87 MG (LRRC15+) cells. 100,000 U-87 MG cells (ATCC HTB-14) were seeded per well in a 96 well deep well plate. Samrotamab and a pH engineered antibody variant were serially diluted at a 1:3 dilution in ice cold FC buffer (phosphate buffered saline (PBS), pH 7.4+2 mM ethylenediaminetetraacetic acid (EDTA)+2% (v/v) HI FBS). The plates were spun at 2,000 RPM for 2 minutes, the supernatant was removed, and 100 μL of diluted antibody was added to each well with final concentration ranging from 60 nM to 1 pM and incubated for 2 hours at 4° C. Post incubation, the cells were spun at 2000 rpm for 2 min and supernatant was discarded. Cells were washed twice with 500 μL of ice-cold FC buffer and resuspended with 100 μL of FC buffer. […] Post incubation, cells were washed with FC buffer and resuspended in 100 μL of FC buffer to read on a BD Accuri C6 flow cytometer. Binding affinity was measured as a dissociation constant KD by GraphPad Prism assuming Michaelis-Menten binding kinetics.

Row | IC50 [nM] | Binder
1 | 0.228 | samrotamab (antibody, V domains shown, IgG; the entries called heavy and light chain hold the variable domains only; also called MYT0963) VH: EVQLVQSGAEVKKPGASVKVSCKASGYKFSSYWIEWVKQAPGQGLEWIGEILPGSDTTNYNEKFKDRATFTSDTSINTAYMELSRLRSDDTAVYYCARDRGNYRAWFGYWGQGTLVTVSS VL: DIQMTQSPSSLSASVGDRVTITCRASQDISNYLNWYQQKPGGAVKFLIYYTSRLHSGVPSRFSGSGSGTDYTLTISSLQPEDFATYFCQQGEALPWTFGGGTKVEIK
2 | 0.484 | MYT0971 (antibody, V domains shown, IgG) VH: EVQLVQSGAEVKKPGASVKVSCKASGYKFSSYHIEWVKQAPGQGLEWIGEILPGSDTTNYNEKFKDRATFTSDTSINTAYMELSRLRSDDTAVYYCARDRGNYRAWFGYWGQGTLVTVSS VL: DIQMTQSPSSLSASVGDRVTITCRASQDISNYLNWYQQKPGGAVKFLIYYTSRLHSGVPSRFSGSGSGTDYTLTISSLQPEDFATYFCQQGEALPWTFGGGTKVEIK
